From paper PMC4229036

Target: Donor-labeled human factor Xa (fluorescein-EGR-chloromethylketone at the active site) (human)
Test: fluorescence polarisation

fluorescence anisotropy of active-site fluorescein (200 µM C6PS): 0.21 | fluorescence anisotropy of active-site fluorescein (400 µM C6PS): 0.22 | fluorescence anisotropy of active-site fluorescein (700 µM C6PS): 0.22 | fluorescence anisotropy of active-site fluorescein (on membranes): 0.22
Substance: Recombinant human factor Va (FVa2) with a N2181Q mutation (natural protein)
